Results taken from PMC4615758 (RNA Biology, 2014).

Target: the molecule itself
Assay: native gel or EMSA

B1: recombinant full size LARP6 purified from E. coli (natural protein)
chain: MAQSGGEARPGPKTAVQIRVAIQEAEDVDELEDEEEGAETRGAGDPARYLSPGWGSASEEEPSRGHSGTTASGGENEREDLEQEWKPPDEELIKKLVDQIEFYFSDENLEKDAFLLKHVRRNKLGYVSVKLLTSFKKVKHLTRDWRTTAHALKYSVVLELNEDHRKVRRTTPVPLFPNENLPSKMLLVYDLYLSPKLWALATPQKNGRVQEKVMEHLLKLFGTFGVISSVRILKPGRELPPDIRRISSRYSQVGTQECAIVEFEEVEAAIKAHEFMITESQGKENMKAVLIGMKPPKKKPAKDKNHDEEPTASIHLNKSLNKRVEELQYMGDESSANSSSDPESNPTSPMAGRRHAATNKLSPSGHQNLFLSPNASPCTSPWSSPLAQRKGVSRKSPLAEEGRLNCSTSPEIFRKCMDYSSDSSVTPSGSPWVRRRRQAEMGTQEKSPGTSPLLSRKMQTADGLPVGVLRLPRGPDNTRGFHGHERSRACV
- binding result: binds
